± gives the uncertainty stated by the source.

This series in a line: amyloid nucleation score (Sup35N fusion, yeast selection) (log enrichment); library NNK3; higher = more nucleation; inactive = no reads after selection. Put shortly: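 Sup35N was fused to peptides of 20 random codons and expressed in psi-negative yeast, which were induced with 100 μM copper sulfate for 24 hours and then grown on medium lacking adenine and uracil for 7 days at 30°C. Plasmid inserts from input and output were sequenced on Illumina. The nucleation score is the DiMSum log enrichment of output over input reads, centred on the mode score of non-aggregating sequences. Sequences with under 100 input reads were left out, and random libraries had three technical output replicates.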
Regarding LASLTRLLDFMMSVENTYSA, the amyloid nucleation score entry was “inactive”.
Regarding LAVFFDRD, the amyloid nucleation score entry was “inactive”.
The result for LAVFSEARNEGTTQFYYLLK reads “inactive”.
With LCALTS, the amyloid nucleation score result was “inactive”.
The result for LCDFSLGGYSGNCYIFKMSV reads 0.739 ± 0.28; that for LCETCKNVARIYSFLIGMTD, “inactive”.
Under LCGLERLKVMQWHSVPRKHI stands “inactive”; under LCGPSDLAT, 0.096 ± 0.66.
Take LCLFGLLYNIETFSIVVDYS: the amyloid nucleation score result is “inactive”.
Under LCMAFNVIPQTSFLALKASC stands “inactive”; under LCRLLVSTWNSASSFFCRKL, “inactive”.
Under LCRYRNSYICSGNIIWMCSL stands “inactive”; under LCTCTLCSLYV, “inactive”; under LCVRFARMSGSAHLVESYVD, “inactive”.
The result for LCVRYDMSEGLRKGWWYGVG reads “inactive”.
In turn, LDCFCSPVKVTWH showed an amyloid nucleation score of 0.146 ± 0.21.
Under LDGMYHTVRICNSCF stands “inactive”; under LDGQFNNLYMYPSFYQEVAG, “inactive”.
The result for LDLDSNRFKVDLNDLYELVV reads “inactive”; that for LDLSSYVHSTLEPGQWKRSR, “inactive”; that for LDMFHSEIIFLMWYRGWVNA, “inactive”.
On to LDTLLVYHFRKERVLNTGVN, for which the amyloid nucleation score entry was “inactive”.
Under LDTSNMPTYGLKSEVSVIAR stands “inactive”; under LDVMTCNRLKVTVDFMCMNA, “inactive”.
Under LEESFSKNLSKSFYIQ stands “inactive”; under LEFVY, 0.238 ± 0.52.
Under LEGGSITCLSPC stands “inactive”; under LELRYCLFADPMI, “inactive”.
As to LELVYGKIYSDPSTFRGHLV, the amyloid nucleation score entry was “inactive”.
The result for LETMN reads “inactive”; that for LETNG, “inactive”.
The result for LEWERPS reads “inactive”.
Under LFASWEDFLASSRYWRLEKR stands 0.356 ± 0.39; under LFCLKIKLEAERRYLQGLRH, 1.72 ± 0.09.
In the case of LFCRVWSFGVLMCFE, the amyloid nucleation score entry was “inactive”.
Under LFDFADSMVRQVRTDAKRLN stands “inactive”; under LFEPVIEILI, “inactive”.
The result for LFEWMRCMTVFMVGAAYAAT reads “inactive”; that for LFILFSNGYTVGYNSDNRSF, 0.601 ± 0.22; that for LFITSHREGDWWLSTVRIHF, 0.367 ± 0.27.
Turning to LFLDWALIFLV, the amyloid nucleation score entry is “inactive”.
Under LFLFESQTCDSRVQNCISFG stands “inactive”; under LFLGLIVVGTVLNELSMTNA, “inactive”.
The result for LFLVYGGYIFAQRKFAFNSS reads “inactive”.
Under LFMCMIFDCDIRIVNSVGCI stands 1.43 ± 0.14.
Regarding LFNYLFLVP, the amyloid nucleation score result is “inactive”.
For the substance LFPYMDCNSGTELFYGFIVQ, the amyloid nucleation score entry was “inactive”.
Under LFSMEKGEYGNRRGYAVYFL stands 1.74 ± 0.084; under LFSNTRVSSGYRSRLLSRCL, “inactive”.
For the substance LFSQAHGYRDVLGGFRVFWV, the amyloid nucleation score result is “inactive”.
Under LFSSRYDLIDVNVRGVDYSQ stands “inactive”; under LFTSFYVSPYM, “inactive”; under LFVIHAGMNSTSFFKNMMSC, “inactive”.
For the substance LFVIYISDIAPTGYQVQNDI, the amyloid nucleation score entry was “inactive”.
The result for LFVKMR reads -0.219 ± 0.32.
Under LFVMGRFVSFALFTWKTDNV stands “inactive”.
Under LFYGHVNLASYRVSNRSKTR stands “inactive”; under LGCSVTTVSV, “inactive”; under LGDALAEVNQDHADSGYRVT, “inactive”.
Regarding LGDDVFSLAFGDNFKDHKFH, the amyloid nucleation score result was “inactive”.
The result for LGESMRRVKVSVQIRIHMGQ reads 1.11 ± 0.16; that for LGFFCVIFVS, “inactive”.
Under LGGTSNLMFGYMK stands “inactive”; under LGHGFWQFSYLG, “inactive”; under LGIGVKYSTGWCFVIMSSAM, “inactive”.
On to LGMSYVYTTGLQKQAASQ, for which the amyloid nucleation score entry was “inactive”.
The result for LGNIGVELVDRCDRYIYQPD reads 0.627 ± 0.2; that for LGNSPVHST, “inactive”; that for LGRCFVFMRTVCFDSA, “inactive”.
Under LGSAGYSSQGLWCLVLRVPL stands “inactive”; under LGSGEATE, “inactive”.
Under LGVGMQRYMSWRRK stands 0.504 ± 0.29; under LGWLLVTNWTSTYAGSLHDG, “inactive”; under LGYISFGFPVEDNWVHLACD, “inactive”.
In the case of LHDNRHYGNLTEAL, the amyloid nucleation score entry was “inactive”.
Under LHFVVFAYYKRLMDSQIC stands “inactive”.
Under LHGWFLNLLIFYAMRLRSVL stands “inactive”; under LHLNGAYMAFLIVMSCMHFS, “inactive”; under LHVFSECRFIRSLLGPNGIF, “inactive”.
The result for LHYMYTYFTTKVLSSRIGGV reads “inactive”.
For the substance LIACSHSRNT, the amyloid nucleation score entry was “inactive”.
Under LICAW stands “inactive”; under LIFGYPVGKFTMMGLTSMWS, “inactive”.
Under LIFPWDLRKGAHHPGLRSCI stands “inactive”; under LIIGHVFGFHGYVDWDDGTC, “inactive”.
Under LIKVTS stands “inactive”; under LIKWFSFRWLVTILVIDQTY, “inactive”.
LINAYQLLFQNHQKEMMFVT: the amyloid nucleation score entry was “inactive”.
Under LINNSEASLIHYIYGRGNVQ stands -0.664 ± 1.9.
Under LISCAMGRELTYRSNSRRGR stands “inactive”; under LITEGYAYFLNWVFRYISYW, “inactive”; under LIVAFSLASLGLKFSQCSWA, -0.363 ± 0.96.
LIVRLDPIFKKIKNK: the amyloid nucleation score was 1.27 ± 0.11.
In the case of LIYANEYA, the amyloid nucleation score result is “inactive”.
Under LIYCYMFMITAVGRACMPCR stands “inactive”; under LIYYCEHHARLSVLLDESSA, “inactive”; under LKCFEMNYQYGRRLNNG, “inactive”.
The result for LKCSLLYCRCRPGYQIAGT reads “inactive”; that for LKIWGRFITGETV, “inactive”; that for LKNGLYYHHYFTFLMAYIHQ, “inactive”.
The result for LKPQHSSGGSLSRMIYRPFL reads 2.18 ± 0.088; that for LKVKLANR, “inactive”.
Regarding LKVLVD, the amyloid nucleation score result was “inactive”.
The result for LKVVSKVLYNSSYPVRYVLR reads “inactive”.
Under LLAWFHNCRLRLI stands “inactive”; under LLCGSCWFYTMGHVSPNKRI, 0.862 ± 0.11.
The result for LLCMWFCKSRLPRCSKCCSR reads “inactive”; that for LLCYWSLA, “inactive”.
With LLDENGGHYSSIRAISDGGI, the amyloid nucleation score entry is “inactive”.
Take LLDFVNGFYCFDFTGTFNIY: the amyloid nucleation score is 0.993 ± 0.15.
The result for LLDIC reads “inactive”.
With LLDNITLFVWNYMVSSEWKL, the amyloid nucleation score result is “inactive”.
Turning to LLECNRTMPQLMVWEVFCSV, the amyloid nucleation score entry was “inactive”.
The result for LLGLCRVLW reads 1.31 ± 0.097.
The result for LLIFYGKLMIWGSGHSDTFR reads “inactive”.
The result for LLKPTVRCKPRLK reads “inactive”; that for LLKSGYYKGGFVKGAIRFRE, “inactive”; that for LLLGDVVVMTEAYYIMSPVP, “inactive”.
LLLIWWNLALNLKLFFELKV: the amyloid nucleation score result is “inactive”.
Under LLLPWCYFRRKMGRR stands “inactive”; under LLMFTFHYSPFS, 0.483 ± 0.37.
As for LLMLCRCKPYFFGFYLCWFR, the amyloid nucleation score result is “inactive”.
Under LLPAI stands “inactive”; under LLPDRFANPGETWVLNYKLM, “inactive”.
Under LLQICGVYYYPIVSYSPDDF stands “inactive”; under LLRFP, “inactive”; under LLRSCYVSYALNGYSTTFRD, “inactive”.
The result for LLRSQASTATGYH reads “inactive”.
As to LLSFLTVRLCVFRTYFW, the amyloid nucleation score result was “inactive”.
For LLVRMILNYKELLVTAILQV, the amyloid nucleation score result was “inactive”.
Under LLVVY stands “inactive”.

For the origin of these results see the supplement of paper PMC12042874.
